Results: the supplement of paper PMC6755084

B1: minF1; a variant is named by its letters at N, in order (parent)
chain: GAGACCGCAACTGAAAAGTTGTTNNNNAANNNNGGNTNNATTTCTGCACGTAGAAGCAAAAGGC

Variants of: B1
Experiment: fraction ligated after 30 min (ligated reads / total reads); higher = more ligase activity
Settings: with F1*subA RNA substrate (template-directed ligation), 42 °C
Experimental: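 Chip-synthesised pool of minF1 ligase ribozyme variants (single and double substitutions, single to quadruple deletions, bulge and P2 designed variants) was transcribed with T7 and reacted as a pool with excess substrate F1*subA for 30 min at 42 C in 50 mM EPPS pH 8.5, 25 mM MgCl2. Ligated and unligated RNAs were separated by PAGE, barcoded by RT and deep sequenced; fraction ligated = ligated reads / total reads, relative activity = FL / FL of wild-type minF1 (0.76); sequencing FL correlated with PAGE (R2 = 0.98). Sequences are the DNA template of the ribozyme.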

| Variant | fraction ligated |
| --- | --- |
| ATCAATGTTGA | 0.00356 |
| ATCGGGATGTA | 0.00428 |
| ATCGGGATGTG | 0.0285 |
| ATCAAATGGTT A28G T37G A40G | 0.0011 |
| ATCAATGGTGA | 0.0039 |
| ATGATATGTGA | 0.00429 |
| ATCAGATGTGA A28G A29G | 0.00309 |
| ATCAGATGTGA A28G A29T | 0.00278 |
| ATCGTGGAGTA G34T | 0.0058 |
| ATCAAGGTTGA | 0.00224 |
| ATCAGGATGTG A29T | 0.0272 |
| ATCAAGGGTGA A28G | 0.00483 |
| ATCAATGGTGA A28G | 0.00319 |
| ATCAATAGTGA A28G | 0.00213 |
| ATCGAGGGTGA | 0.00167 |
| ATCAGGAGTGA A28G | 0.0026 |
| ATCAAATGGTA A28G | 0.0012 |
| ATCATGGGTGA | 0.00433 |
| ATCAATGGGTT A28G G34T T37G | 0.00191 |
| ATCAATTGTGA A28G | 0.00238 |
| ATGAGGTGTGA A29T | 0.00679 |
| ATCGATGGTGA | 0.00498 |
| ATCAATGTGTA A28G | 0.00287 |
| ATCAATGAGTA G34T | 0.0033 |

| Variant | fraction ligated |
| --- | --- |
| ATCGATGATGA | 0.00308 |
| ATCAAATAGTG A28G | 0.00674 |
| ATCAAAGGGTG A28G G34T | 0.00328 |
| ATCAAAGGGTG A28G G34A | 0.00764 |
| ATCAATGAGTG | 0.00492 |
| ATCAATGAGTA | 0.00236 |
| ATGAGATGTGA A28T A29G | 0.016 |
| ATCAATGAGTA A28G G34T | 0.00248 |
| ATCAATGAGTT A28G G34T T37G | 0.00246 |
| ATCGTGGGTGA | 0.00142 |
| ATCATGATTGA A28G | 0.00281 |
| ATCGGGATGTG A29T | 0.0354 |
| ATCGAGTGTGA | 0.00242 |
| ATCAAGGTGTG A28G | 0.0012 |
| ATCAAGGAGTT G34T T37G | 0.00324 |
| ATCGAGATGTA | 0.00349 |
| ATCGAGATGTG | 0.0313 |
| ATCGATGAGTT G34T T37G A40G | 0.00104 |
| ATCATGGGTGA A28G | 0.00379 |
| ATCAAGGTGTG | 0.00687 |
| ATCAAGGTGTA | 0.00438 |
| ATCAAGGAGTT A28G G34T T37G | 0.00162 |
| ATCAATGTGTG A28G | 0.00324 |
| ATCAATGAGTT A28G G34T T37G A40G | 0.000608 |

| Variant | fraction ligated |
| --- | --- |
| ATCAAATGGTG A28G G34T | 0.0032 |
| ATCAAATGGTG A28G G34A | 0.00551 |
| ATCGAGGAGTA | 0.00327 |
| ATCGAGGAGTG | 0.0042 |
| ATCATGGAGTG A28G | 0.00442 |
| ATCAAATGGTA A28G G34A | 0.00267 |
| ATCAAATGGTA A28G G34T | 0.00212 |
| ATGATGGATGA | 0.00302 |
| ATCAATGAGTT G34T T37G A40G | 0.00152 |
| ATCATGGAGTT G34T T37G A40G | 0.00188 |
| ATCAAGGAGTA | 0.00502 |
| ATCAAGGAGTG | 0.00548 |
| ATCAAGGAGTT G34T T37G A40G | 0.00198 |
| ATCGGATGTGA | 0.00494 |
| ATCAGGTGTGA A28G A29T | 0.00216 |
| ATCAAATTTGA A28G | 0.00721 |
| ATCAATGGGTA A28G | 0.000828 |
| ATCGTATGTGA | 0.00154 |
| ATCGAGGATGA | 0.00383 |
| ATCAGGATGTG A28G A29T | 0.00377 |
| ATCAATGGGTA G34A | 0.00177 |
| ATCAATGGGTA G34T | 0.0029 |
| ATCAATGAGTG G34T | 0.00509 |
| ATCAATGGGTT A28G G34A T37G A40G | 0.000541 |

| Variant | fraction ligated |
| --- | --- |
| ATCAGGATGTA A28G A29T | 0.00157 |
| ATCAATGGGTT G34T T37G | 0.00279 |
| ATCGGGAGTGA A29T | 0.00273 |
| ATCAGATGTGA A29T | 0.00586 |
| ATCAGATGTGA A29G | 0.0024 |
| ATCAAGGATGA A28G | 0.000468 |
| ATCAATGGGTG G34A | 0.00542 |
| ATCAATGGGTG G34T | 0.00622 |
| ATCAAATGGTT A28G G34A G35T T37G | 0.00118 |
| ATCAAATGTGA A28G | 0.00482 |
| ATCATGAGTGA | 0.00331 |
| ATCGTGGAGTG G34T | 0.0139 |
| ATGAGGATGTG A29T | 0.00971 |
| ATCATATGTGA A28G | 0.00411 |
| ATCGAGAGTGA | 0.00383 |
| ATCAAAGTTGA A28G | 0.0038 |
| ATCAGATGTGA A28G | 0.00527 |
| ATCGATGGGTT G34A G35T T37G | 0.00178 |
| ATCAAATAGTA A28G G34T | 0.00133 |
| ATCATGGTGTA A28G | 0.0034 |
| ATCATGGTGTG A28G | 0.0033 |
| ATCAAATGGTT A28G G35T T37G | 0.00103 |
| ATCGATGGGGT G34A G35T T37G A40T | 0.00147 |
| ATCGGATGTGA A29G | 0.00359 |

| Variant | fraction ligated |
| --- | --- |
| ATCGGATGTGA A29T | 0.00285 |
| ATCAAGATGTG A28G | 0.0128 |
| ATCAATGAGTG A28G | 0.00439 |
| ATCGATATTGA | 0.00165 |
| ATCGATGAGTA G34T | 0.00167 |
| ATCAAAGGGTT A28G G34T T37G | 0.00171 |
| ATGAGATGTGA | 0.00646 |
| ATCAAAGTGTG A28G | 0.00272 |
| ATCAGGAGTGA A28G A29T | 0.0016 |
| ATCAATGGGTT A28G G34A G35T T37G | 0.00268 |
| ATCGAATGTGA | 0.00581 |
| ATCAGGATTGA A29T | 0.00634 |
| ATGATGGTTGA | 0.00283 |
| ATCAGGTGTGA A28G | 0.00256 |
| ATCAAGGAGTA A28G | 0.00255 |
| ATCAAATTGTA A28G | 0.00076 |
| ATCGTGAGTGA | 0.00262 |
| ATCAGGAGTGA A29T | 0.00323 |
| ATGATGGAGTT G34T T37G A40G | 0.0011 |
| ATCAATGAGTA A28G | 0.00241 |
| ATCGATGGGTT G34T T37G | 0.00156 |
| ATGATGAGTGA | 0.00204 |
| ATCAATGGGTA A28G G34A | 0.00228 |
| ATCAATGGGTA A28G G34T | 0.00241 |

| Variant | fraction ligated |
| --- | --- |
| ATCAAAGGGTT A28G G34A T37G A40G | 0.000889 |
| ATCGGGATTGA | 0.00341 |
| ATCAAAGGGTA A28G | 0.00291 |
| ATGAGGATGTA | 0.00328 |
| ATGAGGATGTG | 0.00619 |
| ATCGATGGGTA G34A | 0.00165 |
| ATCGATGGGTA G34T | 0.00207 |
| ATCATGGAGTA A28G | 0.00253 |
| ATCAAAGGGTA A28G G34A | 0.00347 |
| ATCAAAGGGTA A28G G34T | 0.00211 |
| ATCGATGGGTT G34T T37G A40G | 0.00104 |
| ATCGAGGAGTT G34T T37G A40G | 0.000736 |
| ATCAGGATGTA A29T | 0.00407 |
| ATCGGGAGTGA | 0.00227 |
| ATCAAGTGTGA | 0.00229 |
| ATCAAATGTGT A28G G35A T37G A40T | 0.000969 |
| ATCGATTGTGA | 0.00257 |
| ATCGGGTGTGA A29T | 0.00298 |
| ATCAAATGGTT A28G T37G | 0.00127 |
| ATCAATGGGTT A28G G34A T37G | 0.00259 |
| ATCATGGAGTT A28G G34T T37G A40G | 0.00132 |
| ATGATGGAGTG G34T | 0.011 |
| ATCAAGGAGTG A28G | 0.00589 |
| ATCGAGGTTGA | 0.00313 |

| Variant | fraction ligated |
| --- | --- |
| ATCAAGATGTA | 0.00295 |
| ATCAAGATGTG | 0.0129 |
| ATCATGTGTGA A28G | 0.00186 |
| ATGATGATGTA | 0.00247 |
| ATGATGATGTG | 0.00639 |
| ATCAATGGGGT G34A G35T T37G A40T | 0.0016 |
| ATCAATGGGTT A28G G34T T37G A40G | 0.00157 |
| ATCAAGATTGA A28G | 0.00251 |
| ATCATGGATGA | 0.00299 |
| ATCGATGGGTA | 0.000742 |
| ATCGATGGGTG | 0.00493 |
| ATCGATGAGTG G34T | 0.0033 |
| ATCAATGATGA A28G | 0.000976 |
| ATCGGGATTGA A29T | 0.00409 |
| ATCAAGGAGTG G34T | 0.00633 |
| ATCAAGGAGTG A28G G34T | 0.00593 |
| ATCAAATGTGA | 0.00252 |
| ATCAAAGGGTT A28G G34T T37G A40G | 0.000216 |
| ATCAAAGGGTT A28G G34A T37G | 0.00203 |
| ATCAATGTGTG | 0.00785 |
| ATCAATGTGTA | 0.00707 |
| ATCGATGAGTT G34T T37G | 0.00178 |
| ATCAATGAGTT G34T T37G | 0.00278 |
